± gives the standard deviation of the averaged measurements.
B1: library; a variant is named by its letters at N, in order (parent)
chain: GCUGUCACCGGUGUAUUACCCUAGUGGUCGACCGGUCUGAUGAGUCUNNNNNNAGACGAAACAGC

Tests used:
hypoxanthine [1] = variants of: B1; experiment: normalized RNA/DNA level with ligand (relative to sTRSVctl = 100) (log10 (% of sTRSVctl)); ligand: hypoxanthine (xanthine aptamer); higher = less ribozyme self-cleavage, higher mRNA level; details: ligand concentration (+) RNA-Seq: 5 mM, HEK293T, reporter: mCherry (pCS4076), ligand present: yes
In short: (§1)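 Ribozyme switch library plasmids linked to reporters were introduced into HEK293T cells at 4 µg per 6-well well, with ligand, if any, added 1 h before. Total RNA was extracted with EDTA 72 h later, reverse-transcribed, amplified, barcoded and sequenced. RNA level was computed from RNA over DNA reads relative to a spiked-in non-cleaving sequence or the top sequences, then scaled and log-transformed. The top set was 25 sequences, values were ×100 and log10, and the cutoff was ≥100 DNA reads.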

hypoxanthine [2] = variants of: B1; experiment: normalized RNA/DNA level without ligand (relative to sTRSVctl = 100) (log10 (% of sTRSVctl)); ligand: hypoxanthine (xanthine aptamer); higher = less ribozyme self-cleavage, higher mRNA level; details: HEK293T, reporter: mCherry (pCS4076), ligand present: no
In short: as §1

Q: Which results are given for GCUGUCACCGGUGUAUUACCCUAGUGGUCGACCGGUCUGAUGAGUCUGGAAGUAGACGAAACAGC?
A: normalized RNA/DNA level with ligand (log10) (hypoxanthine [1]): 1.91 ± 0.047; normalized RNA/DNA level without ligand (log10) (hypoxanthine [2]): 1.7 ± 0.02

Q: Which “normalized RNA/DNA level with ligand (log10)” value (hypoxanthine [1]) does the source give for GCUGUCACCGGUGUAUUACCCUAGUGGUCGACCGGUCUGAUGAGUCUCGAAUUAGACGAAACAGC here?
A: 1.95 ± 0.046

Q: What about the “normalized RNA/DNA level without ligand (log10)” value (hypoxanthine [2]) of the same variant?
A: 1.807 ± 0.00086

Q: Which results are given for GCUGUCACCGGUGUAUUACCCUAGUGGUCGACCGGUCUGAUGAGUCUCGAAUCAGACGAAACAGC?
A: normalized RNA/DNA level with ligand (log10) (hypoxanthine [1]): 1.98 ± 0.028; normalized RNA/DNA level without ligand (log10) (hypoxanthine [2]): 1.96 ± 0.042

Q: With GCUGUCACCGGUGUAUUACCCUAGUGGUCGACCGGUCUGAUGAGUCUCGAAUGAGACGAAACAGC as the variant, how does the “normalized RNA/DNA level with ligand (log10)” value (hypoxanthine [1]) read?
A: 1.913 ± 0.003

Q: What about the “normalized RNA/DNA level without ligand (log10)” value (hypoxanthine [2]) of the same variant?
A: 1.883 ± 0.008

Q: How did the “normalized RNA/DNA level with ligand (log10)” value (hypoxanthine [1]) turn out when GCUGUCACCGGUGUAUUACCCUAGUGGUCGACCGGUCUGAUGAGUCUCGACGAAGACGAAACAGC was run?
A: 1.93 ± 0.064

Q: And the “normalized RNA/DNA level without ligand (log10)” value (hypoxanthine [2])?
A: 1.803 ± 0.0041

Q: With GCUGUCACCGGUGUAUUACCCUAGUGGUCGACCGGUCUGAUGAGUCUUGACAUAGACGAAACAGC as the variant, how does the “normalized RNA/DNA level with ligand (log10)” value (hypoxanthine [1]) read?
A: 1.937 ± 0.0061

Q: What about the “normalized RNA/DNA level without ligand (log10)” value (hypoxanthine [2]) of the same variant?
A: 1.81 ± 0.033

Q: For GCUGUCACCGGUGUAUUACCCUAGUGGUCGACCGGUCUGAUGAGUCUUGACAAAGACGAAACAGC, which “normalized RNA/DNA level with ligand (log10)” value (hypoxanthine [1]) is on record?
A: 1.918 ± 0.012

Q: What about the “normalized RNA/DNA level without ligand (log10)” value (hypoxanthine [2]) of the same variant?
A: 1.74 ± 0.078

Q: Which results are given for GCUGUCACCGGUGUAUUACCCUAGUGGUCGACCGGUCUGAUGAGUCUCGACAGAGACGAAACAGC?
A: normalized RNA/DNA level with ligand (log10) (hypoxanthine [1]): 1.93 ± 0.037; normalized RNA/DNA level without ligand (log10) (hypoxanthine [2]): 1.68 ± 0.053

Q: How did the “normalized RNA/DNA level with ligand (log10)” value (hypoxanthine [1]) turn out when GCUGUCACCGGUGUAUUACCCUAGUGGUCGACCGGUCUGAUGAGUCUCGACAUAGACGAAACAGC was run?
A: 1.887 ± 0.012

Q: What about the “normalized RNA/DNA level without ligand (log10)” value (hypoxanthine [2]) of the same variant?
A: 1.74 ± 0.021

Q: What does the source list for GCUGUCACCGGUGUAUUACCCUAGUGGUCGACCGGUCUGAUGAGUCUCGACAAAGACGAAACAGC?
A: normalized RNA/DNA level with ligand (log10) (hypoxanthine [1]): 1.89 ± 0.061; normalized RNA/DNA level without ligand (log10) (hypoxanthine [2]): 1.64 ± 0.012

Q: How did the “normalized RNA/DNA level with ligand (log10)” value (hypoxanthine [1]) turn out when GCUGUCACCGGUGUAUUACCCUAGUGGUCGACCGGUCUGAUGAGUCUGGACAUAGACGAAACAGC was run?
A: 1.886 ± 0.0069

Q: What about the “normalized RNA/DNA level without ligand (log10)” value (hypoxanthine [2]) of the same variant?
A: 1.8 ± 0.038

Q: Which “normalized RNA/DNA level with ligand (log10)” value (hypoxanthine [1]) does the source give for GCUGUCACCGGUGUAUUACCCUAGUGGUCGACCGGUCUGAUGAGUCUGGACAGAGACGAAACAGC here?
A: 1.85 ± 0.055

Q: What about the “normalized RNA/DNA level without ligand (log10)” value (hypoxanthine [2]) of the same variant?
A: 1.468 ± 0.0059

Q: What does the source list for GCUGUCACCGGUGUAUUACCCUAGUGGUCGACCGGUCUGAUGAGUCUAGAAGCAGACGAAACAGC?
A: normalized RNA/DNA level with ligand (log10) (hypoxanthine [1]): 1.918 ± 0.0099; normalized RNA/DNA level without ligand (log10) (hypoxanthine [2]): 1.7002 ± 0.0015

Q: Which “normalized RNA/DNA level with ligand (log10)” value (hypoxanthine [1]) does the source give for GCUGUCACCGGUGUAUUACCCUAGUGGUCGACCGGUCUGAUGAGUCUAGAAGUAGACGAAACAGC here?
A: 1.85 ± 0.034

Q: What about the “normalized RNA/DNA level without ligand (log10)” value (hypoxanthine [2]) of the same variant?
A: 1.51 ± 0.029

Q: With GCUGUCACCGGUGUAUUACCCUAGUGGUCGACCGGUCUGAUGAGUCUCGACCCAGACGAAACAGC as the variant, how does the “normalized RNA/DNA level with ligand (log10)” value (hypoxanthine [1]) read?
A: 2.03 ± 0.046

Q: What about the “normalized RNA/DNA level without ligand (log10)” value (hypoxanthine [2]) of the same variant?
A: 1.98 ± 0.086

Q: Which results are given for GCUGUCACCGGUGUAUUACCCUAGUGGUCGACCGGUCUGAUGAGUCUCGACCUAGACGAAACAGC?
A: normalized RNA/DNA level with ligand (log10) (hypoxanthine [1]): 1.98 ± 0.032; normalized RNA/DNA level without ligand (log10) (hypoxanthine [2]): 1.92 ± 0.056

Q: With GCUGUCACCGGUGUAUUACCCUAGUGGUCGACCGGUCUGAUGAGUCUCGACCAAGACGAAACAGC as the variant, how does the “normalized RNA/DNA level with ligand (log10)” value (hypoxanthine [1]) read?
A: 1.99 ± 0.045

Q: And the “normalized RNA/DNA level without ligand (log10)” value (hypoxanthine [2])?
A: 1.85 ± 0.053

Q: GCUGUCACCGGUGUAUUACCCUAGUGGUCGACCGGUCUGAUGAGUCUCGACCGAGACGAAACAGC was tested. Which “normalized RNA/DNA level with ligand (log10)” value (hypoxanthine [1]) did it give?
A: 1.905 ± 0.0089

Q: And the “normalized RNA/DNA level without ligand (log10)” value (hypoxanthine [2])?
A: 1.92 ± 0.023

Q: GCUGUCACCGGUGUAUUACCCUAGUGGUCGACCGGUCUGAUGAGUCUGGACGCAGACGAAACAGC was tested. Which “normalized RNA/DNA level with ligand (log10)” value (hypoxanthine [1]) did it give?
A: 1.86 ± 0.044

Q: And the “normalized RNA/DNA level without ligand (log10)” value (hypoxanthine [2])?
A: 1.49 ± 0.12

Q: For GCUGUCACCGGUGUAUUACCCUAGUGGUCGACCGGUCUGAUGAGUCUUGAAGCAGACGAAACAGC, which “normalized RNA/DNA level with ligand (log10)” value (hypoxanthine [1]) is on record?
A: 1.925 ± 0.0097

Q: And the “normalized RNA/DNA level without ligand (log10)” value (hypoxanthine [2])?
A: 1.807 ± 0.01

Q: Which results are given for GCUGUCACCGGUGUAUUACCCUAGUGGUCGACCGGUCUGAUGAGUCUUGAAGGAGACGAAACAGC?
A: normalized RNA/DNA level with ligand (log10) (hypoxanthine [1]): 1.83 ± 0.055; normalized RNA/DNA level without ligand (log10) (hypoxanthine [2]): 1.48 ± 0.062
